Molecular target: T1, β-casein (Sigma, St Louis, Mo.), P02666
T1 chain: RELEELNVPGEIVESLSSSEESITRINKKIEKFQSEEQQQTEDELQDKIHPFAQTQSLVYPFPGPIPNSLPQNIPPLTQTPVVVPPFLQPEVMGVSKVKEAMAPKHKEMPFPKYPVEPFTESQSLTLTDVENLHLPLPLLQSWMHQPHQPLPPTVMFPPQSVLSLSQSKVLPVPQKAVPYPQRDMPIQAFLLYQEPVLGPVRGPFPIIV

B1: PRSS11-L CDS-HAHIS (recombinant human PRSS11-L protease with a C-terminal HA6HIS epitope/affinity tag, expressed in baculovirus-infected Sf9 cells) (protein)
chain: MHLALPASAGLHQLSSPRYKFNFIADVVEKIAPAVVHIELFLRHPLFGRNVPLSSGSGFIMSEAGLIITNAHVVSSNSAAPGRQQLKVQLQNGDSYEATIKDIDKKSDIATIKIHPKKKLPVLLLGHSADLRPGEFVVAIGSPFALQNTVTTGIVSTAQREGRELGLRDSDMDYIQTDAIINYGNSGGPLVNLDGEVIGINTLKVTAGISFAIPSDRITRFLTEFQDKQIKDWKKRFIGIRMRTITPSLVDELKASNPDFPEVSSGIYVQEVAPNSPSQRGGIQDGDIIVKVNGRPLVDSSELQEAVLTESPLLLEVRRGNDDLLFSIAPEVVM
- cleavage of β-casein, SDS-PAGE with Coomassie Brilliant Blue staining: The proteolytic activity of PRSS11-L was further confirmed by its cleavage of casein.

From US20040005659
